Measured values as given in patent US20240400715A1 (VIBRANT PHARMA, published 2024).
Substitutions are numbered along the chain they refer to. Values joined by “and” are separate entries in the source; they are usually repeats but may differ in a detail not shown here. Identical values can stand only once.

B1: Knob+CEA-Fab-Hole (206) (bispecific antibody, human IgG4 S228P, kappa, F234A L235A)
chain: ESKYGPPCPPCPAPEAAGGPSVFLFPPKPKDTLMISRTPEVTCVVVDVSQEDPEVQFNWYVDGVEVHNAKTKPREEQFNSTYRVVSVLTVLHQDWLNGKEYKCKVSNKGLPSSIEKTISKAKGQPREPQVYTLPPCQEEMTKNQVSLWCLVKGFYPSDIAVEWESNGQPENNYKTTPPVLDSDGSFFLYSRLTVDKSRWQEGNVFSCSVMHEALHNHYTQKSLSLSL
heavy: EVQLVESGGGFVQAGESLTLSCTSSTLTFTPYRMAWYRQAPGKQRDLVADISSGDGRTTNYADFAKGRFTISRDNIKNTVFLRMTNLKPEDTAVYYCNTFVSFVGIARSWGQGTQVTVSSGGGGSGGGGSEVKLLESGGGLVQPKGSLKLSCAASGFTFNTYAMNWVRQAPGKGLEWVARIRSKYNNYATYYADSVKDRFTISRDDSQSILYLQMNNLKTEDTAMYYCVRHGNFGNSYVSWFAYWGQGTLVTVSSASTKGPSVFPLAPCSRSTSESTAALGCLVKDYFPEPVTVSWNSGALTSGVHTFPAVLQSSGLYSLSSVVTVPSSSLGTKTYTCNVDHKPSNTKVDKRVESKYGPPCPPCPAPEAAGGPSVFLFPPKPKDTLMISRTPEVTCVVVDVSQEDPEVQFNWYVDGVEVHNAKTKPREEQFNSTYRVVSVLTVLHQDWLNGKEYKCKVSNKGLPSSIEKTISKAKGQPREPQVCTLPPSQEEMTKNQVSLSCAVKGFYPSDIAVEWESNGQPENNYKTTPPVLDSDGSFFLVSRLTVDKSRWQEGNVFSCSVMHEALHNRFTQKSLSLSL
light: QAVVTQESALTTSPGETVTLTCRSSTGAVTTSNYANWVQEKPDHLFTGLIGGTNKRAPGVPARFSGSLIGDKAALTITGAQTEDEAIYFCALWYSNLWVFGGGTKVEIKRTVAAPSVFIFPPSDEQLKSGTASVVCLLNNFYPREAKVQWKVDNALQSGNSQESVTEQDSKDSTYSLSSTLTLSKADYEKHKVYACEVTHQGLSSPVTKSFNRGEC
notes: VHH linked to the VH of the Fab; human IgG4 knob-into-hole Fc
B2: 310 (TA5), configuration of FIG. 1X (bispecific antibody, IgG4)
heavy: DVQLVQSGAEVKKPGASVKVSCKASGYTFTRYTMHWVRQAPGQGLEWIGYINPSRGYTNYADSVKGRFTITTDKSTSTAYMELSSLRSEDTATYYCARYYDDHYCLDYWGQGTTVTVSSASTKGPSVFPLAPCSRSTSESTAALGCLVKDYFPEPVTVSWNSGALTSGVHTFPAVLQSSGLYSLSSVVTVPSSSLGTKTYTCNVDHKPSNTKVDKRVESKYGPPCPPCPAPEAAGGPSVFLFPPKPKDTLMISRTPEVTCVVVDVSQEDPEVQFNWYVDGVEVHNAKTKPREEQFNSTYRVVSVLTVLHQDWLNGKEYKCKVSNKGLPSSIEKTISKAKGQPREPQVYTLPPCQEEMTKNQVSLWCLVKGFYPSDIAVEWESNGQPENNYKTTPPVLDSDGSFFLYSRLTVDKSRWQEGNVFSCSVMHEALHNHYTQKSLSLSLGGGGSGGGGSEVQLVESGGGFVQAGESLTLSCTSSTLTFTPYRMAWYRQAPGKQRDLVADISSGDGRTTNYADFAKGRFTISRDNIKNTVFLRMTNLKPEDTAVYYCNTFVSFVGIARSWGQGTQVTVSS
chain: B1 chain with Y131C, C136S, W148S, L150A, Y189V, H217R, Y218F
light: DIVLTQSPATLSLSPGERATLSCRASQSVSYMNWYQQKPGKAPKRWIYDTSKVASGVPARFSGSGSGTDYSLTINSLEAEDAATYYCQQWSSNPLTFGGGTKVEIK
notes: chains put together from parts; IgG4, kappa; also called CEA-CD3 bispecific antibody 310; not shown: kappa light chain constant domain (CL)
B3: 307 (TA2), configuration of FIG. 1X (bispecific antibody, IgG4)
heavy: QVQLVQSGGGVVQPGRSLRLSCKASGYTFTRYTMHWVRQAPGKGLEWIGYINPSRGYTNYNQKVKDRFTISRDNSKNTAFLQMDSLRPEDTGVYFCARYYDDHYCLDYWGQGTPVTVSSASTKGPSVFPLAPCSRSTSESTAALGCLVKDYFPEPVTVSWNSGALTSGVHTFPAVLQSSGLYSLSSVVTVPSSSLGTKTYTCNVDHKPSNTKVDKRVESKYGPPCPPCPAPEAAGGPSVFLFPPKPKDTLMISRTPEVTCVVVDVSQEDPEVQFNWYVDGVEVHNAKTKPREEQFNSTYRVVSVLTVLHQDWLNGKEYKCKVSNKGLPSSIEKTISKAKGQPREPQVYTLPPCQEEMTKNQVSLWCLVKGFYPSDIAVEWESNGQPENNYKTTPPVLDSDGSFFLYSRLTVDKSRWQEGNVFSCSVMHEALHNHYTQKSLSLSLGGGGSGGGGSEVQLVESGGGFVQAGESLTLSCTSSTLTFTPYRMAWYRQAPGKQRDLVADISSGDGRTTNYADFAKGRFTISRDNIKNTVFLRMTNLKPEDTAVYYCNTFVSFVGIARSWGQGTQVTVSS
chain: B1 chain with Y131C, C136S, W148S, L150A, Y189V, H217R, Y218F
light: DIQMTQSPSSLSASVGDRVTITCSASSSVSYMNWYQQTPGKAPKRWIYDTSKLASGVPSRFSGSGSGTDYTFTISSLQPEDIATYYCQQWSSNPFTFGQGTKLQIT
notes: chains put together from parts; IgG4, kappa; also called CEA-CD3 bispecific antibody 307; not shown: kappa light chain constant domain (CL)
B4: 306 (TA7), configuration of FIG. 1W (bispecific antibody, IgG4)
heavy: EVQLVQSGAEVKKPGASVKVSCKASGFTFTSYYIHWVRQAPGQGLEWIGWIYPENDNTKYNEKFKDRVTITADTSTSTAYLELSSLRSEDTAVYYCARDGYSRYYFDYWGQGTLVTVSSASTKGPSVFPLAPCSRSTSESTAALGCLVKDYFPEPVTVSWNSGALTSGVHTFPAVLQSSGLYSLSSVVTVPSSSLGTKTYTCNVDHKPSNTKVDKRVESKYGPPCPPCPAPEAAGGPSVFLFPPKPKDTLMISRTPEVTCVVVDVSQEDPEVQFNWYVDGVEVHNAKTKPREEQFNSTYRVVSVLTVLHQDWLNGKEYKCKVSNKGLPSSIEKTISKAKGQPREPQVYTLPPCQEEMTKNQVSLWCLVKGFYPSDIAVEWESNGQPENNYKTTPPVLDSDGSFFLYSRLTVDKSRWQEGNVFSCSVMHEALHNHYTQKSLSLSL
chain: EVQLVESGGGFVQAGESLTLSCTSSTLTFTPYRMAWYRQAPGKQRDLVADISSGDGRTTNYADFAKGRFTISRDNIKNTVFLRMTNLKPEDTAVYYCNTFVSFVGIARSWGQGTQVTVSSESKYGPPCPPCPAPEAAGGPSVFLFPPKPKDTLMISRTPEVTCVVVDVSQEDPEVQFNWYVDGVEVHNAKTKPREEQFNSTYRVVSVLTVLHQDWLNGKEYKCKVSNKGLPSSIEKTISKAKGQPREPQVCTLPPSQEEMTKNQVSLSCAVKGFYPSDIAVEWESNGQPENNYKTTPPVLDSDGSFFLVSRLTVDKSRWQEGNVFSCSVMHEALHNRFTQKSLSLSL
light: DIVMTQSPDSLAVSLGERATINCKSSQSLLNSRTRKNYLAWYQQKPGQSPKLLIYWTSTRKSGVPDRFSGSGSGTDFTLTISSLQAEDVAVYYCKQSFILRTFGQGTKVEIK
notes: chains put together from VH/VL, CH1, knob-Fc; IgG4, kappa; also called CEA-CD3 bispecific antibody 306; not shown: kappa light chain constant domain (CL)
B5: 304 (TA5), configuration of FIG. 1W (bispecific antibody, IgG4)
heavy: DVQLVQSGAEVKKPGASVKVSCKASGYTFTRYTMHWVRQAPGQGLEWIGYINPSRGYTNYADSVKGRFTITTDKSTSTAYMELSSLRSEDTATYYCARYYDDHYCLDYWGQGTTVTVSSASTKGPSVFPLAPCSRSTSESTAALGCLVKDYFPEPVTVSWNSGALTSGVHTFPAVLQSSGLYSLSSVVTVPSSSLGTKTYTCNVDHKPSNTKVDKRVESKYGPPCPPCPAPEAAGGPSVFLFPPKPKDTLMISRTPEVTCVVVDVSQEDPEVQFNWYVDGVEVHNAKTKPREEQFNSTYRVVSVLTVLHQDWLNGKEYKCKVSNKGLPSSIEKTISKAKGQPREPQVYTLPPCQEEMTKNQVSLWCLVKGFYPSDIAVEWESNGQPENNYKTTPPVLDSDGSFFLYSRLTVDKSRWQEGNVFSCSVMHEALHNHYTQKSLSLSL
chain: B4 chain
light: B2 light
notes: chains put together from VH/VL, CH1, knob-Fc; IgG4, kappa; not shown: kappa light chain constant domain (CL)
B6: 301 (TA2), configuration of FIG. 1W (bispecific antibody, IgG4)
heavy: QVQLVQSGGGVVQPGRSLRLSCKASGYTFTRYTMHWVRQAPGKGLEWIGYINPSRGYTNYNQKVKDRFTISRDNSKNTAFLQMDSLRPEDTGVYFCARYYDDHYCLDYWGQGTPVTVSSASTKGPSVFPLAPCSRSTSESTAALGCLVKDYFPEPVTVSWNSGALTSGVHTFPAVLQSSGLYSLSSVVTVPSSSLGTKTYTCNVDHKPSNTKVDKRVESKYGPPCPPCPAPEAAGGPSVFLFPPKPKDTLMISRTPEVTCVVVDVSQEDPEVQFNWYVDGVEVHNAKTKPREEQFNSTYRVVSVLTVLHQDWLNGKEYKCKVSNKGLPSSIEKTISKAKGQPREPQVYTLPPCQEEMTKNQVSLWCLVKGFYPSDIAVEWESNGQPENNYKTTPPVLDSDGSFFLYSRLTVDKSRWQEGNVFSCSVMHEALHNHYTQKSLSLSL
chain: B4 chain
light: B3 light
notes: IgG4, kappa; not shown: kappa light chain constant domain (CL)

Each binder was assayed against T1, human CD3 on Jurkat cells (human, UniProt P07766 23-207; P04234 22-171; P09693 23-182) (assay: FACS, Jurkat cells;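 further: flow cytometric binding of bispecific antibodies to Jurkat T cells, threefold serial dilutions incubated half an hour in the cold, EC50 taken from the fitted binding curve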).
T1 construct: whole, on cells; CD3 complex as on Jurkat (Clone E6-1) cells; also called CD3 expressing cells (Jurkat)
Experimental: The binding of the bispecific antibodies was tested on the CA expressing human lung adenocarcinoma cell line (H1573) and the CD3 expressing immortalized T lymphocyte line (Jurkat). The steps are as follows: the cells were harvested, counted, and resuspended in FACS buffer (PBS containing 0.1% BSA) at 2×10⁶ cells/ml. 100 μl of cell suspension was incubated in a V-bottom 96-well plate at 4° C. with 3-fold serial dilutions of bispecific antibodies (20 μg/ml-0.009 μg/ml) for 30 minutes; washed twice with pre-cooled FACS buffer. […] GraphPadPrism was used to obtain the binding curve.

EC50 | Binder
8.29 nM and 1.08 µg/mL | B1
0.181 µg/mL and 1.39 nM | B2
2.86 µg/mL and 22 nM | B3
0.0129 µg/mL and 0.1 nM | B4
0.101 µg/mL and 0.77 nM | B5
0.282 µg/mL and 2.17 nM | B6

The binders below were run against T2, human CD3ε/δ (ACRO systems, CDD-H52W1) (human, UniProt P07766 23-126; P04234 22-105) (assay: BLI, antibody captured, antigen in solution;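 further: bispecific antibodies captured on AHIC biosensors to a 1.5 nm loading signal, in PBST with 0.02% detergent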).
T2 construct: Bought protein; also called human CD3ϵ/CD3δ; human CD3 epsilon/delta antigen
Experimental: The bispecific antibodies were diluted to 5 ag/ml, and 1.5 nm protein was coupled to the surface of the AHIC sensor chip through 0.02% PBST.

Kd | koff | kon | Binder
3.08 nM | 0.000552 s⁻¹ | 180000 M⁻¹ s⁻¹ | B1
1.4 nM | 0.000419 s⁻¹ | 278000 M⁻¹ s⁻¹ | B4
